Reference: patent US20230399397A1 (EWHA UNIVERSITY INDUSTRY COLLABORATION FOUNDATION, published 2023)
One block for each binder: values may come before it.

Assays:
[1] = target: T1, mouse OSCAR-Fc (fusion of ectodomain of mouse-derived OSCAR protein and Fc domain of human immunoglobulin … (mouse)); experiment: ELISA, periplasm extract of the scFv clone on coated mOSCAR-Fc
T1 construct: also called mOSCAR-Fc; mOSCAR
Protocol: (§1) To select anti-OSCAR antibodies via ELISA screening, first, 200 μL of SB-carbenicillin was added to each well of a 96-well microplate, and E. coli colonies obtained in the third and fourth panning processes were added thereto, followed by incubation at 37° C. for 2 hours while stirring. Using a plate replication pin tool, the cultured clones were transferred to a new microplate, IPTG was added to each well in which E. coli was cultured to a final concentration of 1 mM, followed by incubation […] while stirring. Then, the microplate was centrifuged and the supernatant discarded, and then precipitated E. coli was suspended in 40 μL of ice-cold 1× TES (20% sucrose, 50 mM Tris, 1 mM EDTA, pH 8.0) per well. Then, […] was added to each well, mixed well, and left on ice for 30 minutes, followed by centrifugation of the microplate to obtain a periplasm extract.
(§2) Subsequently, 25 μL of human and mouse OSCAR-Fc and human IgG each diluted in PBS to a concentration of 2 μg/mL were added to each well of a 96-well plate for ELISA and left to stand at 37° C. for 1 hour such that an antigen was adsorbed onto the surface of the well. […] Once a blue color was clearly developed, reaction was terminated by adding 25 μL of 1 N aqueous sulfuric acid solution to each well, and a color change signal was measured using absorbance at a wavelength of 450 nm. […]

[2] = target: T2, human OSCAR-Fc (fusion of ectodomain of human-derived OSCAR protein and Fc domain of human immunoglobulin … (human)); experiment: ELISA, periplasm extract of the scFv clone on coated hOSCAR-Fc
T2 construct: also called hOSCAR-Fc; hOSCAR
Protocol: as §1, §2

[3] = target: T1, mouse OSCAR-Fc (fusion of ectodomain of …); experiment: competitive ELISA, IgG premixed with OSCAR-Fc, on coated collagen
Protocol: (§3) Specifically, 25 μL of collagen (collagen type I from rat tail) diluted with PBS to a concentration of 2 μg/mL was added to an ELISA plate and adsorbed onto the ELISA plate by leaving to stand at 4° C. overnight. The surface onto which collagen was not adsorbed was protected by using a 3% milk powder solution. Subsequently, the purified anti-OSCAR IgG antibody and human or mouse OSCAR-Fc [fusion of ectodomain of human and mouse-derived OSCAR protein and Fc domain of human immunoglobulin gamma 1 (human IgG1)][human-derived: hOSCAR-Fc (SEQ ID NO: 4) and mouse-derived: mOSCAR-Fc (SEQ ID NO: 5)] were mixed to have concentrations of 2 μg/mL and 1 μg/mL, respectively, for 1.5 hours to bind to each other. Then, the mixture was added to the collagen-adsorbed ELISA plate from which the powdered milk solution was removed in an amount of […] and left to stand at room temperature for 1.5 hours. Subsequently, the plate was washed three times with PBST to remove unreacted antibodies and OSCAR-Fc, and 25 μL of an HRP-conjugated anti-human IgG antibody diluted at 1:3,000 was added to each well and left to stand at room temperature for 1 hour to detect OSCAR-Fc bound to collagen. […] Absorbance was measured at 450 nm to analyze the degree of OSCAR-collagen binding (FIG. 2).

[4] = target: T2, human OSCAR-Fc (fusion of ectodomain of …); experiment: as above
Protocol: as §3

[5] = target: T2, human OSCAR-Fc (fusion of ectodomain of …); experiment: bio-layer interferometry (Octet), antibody as ligand on the sensor, hOSCAR as analyte
[6] = target: T1, mouse OSCAR-Fc (fusion of ectodomain of …); experiment: bio-layer interferometry (Octet), antibody as ligand on the sensor, mOSCAR as analyte
[7] = target: T2, human OSCAR-Fc (fusion of ectodomain of …); experiment: serial dilution ELISA, 4-parameter logistic curve fit
[8] = target: T2, human OSCAR-Fc (fusion of ectodomain of …); experiment: BLI (Octet); BLI (Octet); mother clone D11
Protocol: Therefore, based on intensities of the ELISA signals, expression levels, stability, and activity of the clones whose affinity was matured from the clone D11, D11-B9 was selected, and relative affinity thereof to OSCAR was re-evaluated by way of serial dilution. […] To measure a dissociation constant more accurately, analysis was performed by measuring bio-layer interferometry (BLI) signals using an Octet device. […] In the same manner as in the serial dilution ELISA, the clone D11 seems to have a lower affinity to hOSCAR. A dissociation constant was about 5.6 nM, and a lower response signal was measured (FIG. 10).

[9] = target: T2, human OSCAR-Fc (fusion of ectodomain of …); experiment: BLI (Octet); BLI (Octet); hOSCAR
[10] = target: T2, human OSCAR-Fc (fusion of ectodomain of …); experiment: serial dilution ELISA, 4-parameter logistic curve fit; first serial dilution ELISA of the IgG clones (FIG. 9)
Protocol: Next, the EC₅₀ values of the clones were calculated using a 4-parameter logistic curve fit from serial dilution ELISA.

[11] = target: T2, human OSCAR-Fc (fusion of ectodomain of …); experiment: serial dilution ELISA (re-evaluation); re-evaluation by serial dilution (FIG. 10); hOSCAR
[12] = target: T1, mouse OSCAR-Fc (fusion of ectodomain of …); experiment: serial dilution ELISA (re-evaluation); re-evaluation by serial dilution (FIG. 10); mOSCAR
[13] = target: T1, mouse OSCAR-Fc (fusion of ectodomain of …); experiment: BLI (Octet)
[14] = target: T2, human OSCAR-Fc (fusion of ectodomain of …); experiment: BLI (Octet)
[15] = target: T1, mouse OSCAR-Fc (fusion of ectodomain of …); experiment: BLI (Octet); BLI (Octet); mOSCAR

B3: anti-OSCAR antibody D11 (IgG) (antibody, V domains shown)
VH: EVQLLESGGGLVQPGGSLRLSCAASGFTFSDYYWTWVRQAPGKGLEWVSGSPVFGAANYAQNFQGRFTISRDNSKNTLYLQMNSLRAEDTAVYYCAKAGFTGGHFDIWGQGTLVTVSS
VL: QSVLTQPPSASGTPGQRVTISCSGSSSNIGNNYVSWYQQLPGTAPKLLIYGNSNRPSGVPNRFSGSKSGTSASLAISGLRSEDEADYYCQSYDSSSWLFGGGTKLTVLG
notes: also called clone D11; mother-clone D11
- Kd [5]: 5.61 nM
- Kd [6]: 2.87 nM
- EC50 [7]: 520 nM
- Kd [8]: ~5.6 nM

B4: anti-OSCAR antibody D11-B9 (IgG) (antibody, V domains shown)
VH: EVQLLESGGGLVQPGGSLRLSCAASGFTFSDYYWTWVRQAPGKGLEWVSGSPVFGAANYAQNFQGRFTISRDNSKNTLYLQMNSLRAEDTAVYYCAKAGIPGHFDIWGQGTLVTVSS
VL: QSVLTQPPSASGTPGQRVTISCSGSSSNIGNNYVSWYQQLPGTAPKLLIYGNSNRPSGVPNRFSGSKSGTSASLAISGLRSEDEADYYCQSYDSSSWLFGGGTKLTVLG
notes: also called clone D11-B9; D11-69 (misprint in the text)
- Kd [9]: 0.4 nM
- EC50 [10]: 1.5 nM
- Kd [5]: 0.41 nM
- Kd [6]: 0.222 nM
- EC50 [11]: 36.8 nM
- EC50 [12]: 36.8 nM
- fold affinity against clone D11 [13]: ≥ 10 times
- fold affinity against clone D11 [14]: 10 times
- Kd [15]: 0.2 nM

Further lines, results first:

- binding result [1]: binds
- binding result [2]: binds
B1: anti-OSCAR scFv B4 (scFv, V domains shown)
VH: EVQLLESGGGLVQPGGSLRLSCAASGFTFSDYAMSWVRQAPGKGLEWVSGIYHGGGNIYYADSVKGRFTISRDNSKNTLYLQMNSLRAEDTAVYYCARAPDEFDYWGQGTLVTVSS
VL: QSVLTQPPSASGTPGQRVTISCSGSSSNIGNNSVTWYQQLPGTAPKLLIYYNSHRPSGVPDRFSGSKPGTSASLAISGLRSEDEADYYCGAWDSSLNGYVFGGGTKLTVL
notes: Single-chain Fv; Tested as periplasm extract

- binding result [3]: binds
- binding result [4]: binds
B2: anti-OSCAR antibody B4 (IgG) (antibody, V domains shown)
VH: EVQLLESGGGLVQPGGSLRLSCAASGFTFSDYAMSWVRQAPGKGLEWVSGIYHGGGNIYYADSVKGRFTISRDNSKNTLYLQMNSLRAEDTAVYYCARAPDEFDYWGQGTLVTVSS
VL: QSVLTQPPSASGTPGQRVTISCSGSSSNIGNNSVTWYQQLPGTAPKLLIYYNSHRPSGVPDRFSGSKPGTSASLAISGLRSEDEADYYCGAWDSSLNGYVFGGGTKLTVLG
notes: also called clone antibody B4
